# Test results taken from patent publication US20240417707.
# Columns and labels:
# Experiment in all cases: cell_activity
# [1] = test system: Nme2-ABE8e-i1 (Neisseria meningitidis)
# [2] = test system: Nme2-ABE8e-i1 V106W V106W (in TadA8e) (Neisseria meningitidis)
# [3] = test system: Nme2-ABE8e-nt (Neisseria meningitidis)
# [4] = A6 editing, mouse liver in vivo, N4CC PAM
# [5] = up to, off-target A-to-G, mouse liver
Substance,"activity [1, 4] [%]","activity [2, 4] [%]","activity [3, 4] [%]","activity [1, 5] [%]","activity [2, 5] [%]","activity ([3]; off-target A-to-G, mouse liver) [%]"
Rosa26 sgRNA ; Rosa26 target,49,46,34,–,–,–
Rosa26 sgRNA ; Rosa26-OT1 off-target,–,–,–,7,5,0.2
